Data reported in IntAct's records for PubMed 10869553.

B1: Protein S100-A4 (Mus musculus), P07091 (parent)
chain: MARPLEEALDVIVSTFHKYSGKEGDKFKLNKTELKELLTRELPSFLGKRTDEAAFQKVMSNLDSNRDNEVDFQEYCVFLSCIAMMCNEFFEGCPDKEPRKK
partner: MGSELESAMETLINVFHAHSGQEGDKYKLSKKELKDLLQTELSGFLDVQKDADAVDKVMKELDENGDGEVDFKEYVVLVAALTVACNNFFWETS

Variants of: B1
Details: with S100a1, P56565

| Variant | effect of a mutation on the interaction |
| --- | --- |
| F72A | disrupting interaction |
